T1: recombinant human KAAG1 (Kidney associated antigen 1) (human, UniProt Q9UBP8 1-84)
T1 construct: also called KAAG1 protein
T1 sequence: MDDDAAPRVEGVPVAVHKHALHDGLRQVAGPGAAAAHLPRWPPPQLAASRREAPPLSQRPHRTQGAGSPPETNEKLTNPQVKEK

T2: KAAG1 on the surface of cancer cells (human, UniProt Q9UBP8 1-84)
T2 construct: Endogenous KAAG1 of human cancer cell lines and of tumor tissue sections; also called KAAG1 antigen
T2 sequence: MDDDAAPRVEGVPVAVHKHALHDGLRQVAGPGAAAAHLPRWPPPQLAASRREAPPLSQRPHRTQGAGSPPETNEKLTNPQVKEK


Tests used:
[1] = target: T1, recombinant human KAAG1 (Kidney …); assay: epitope mapping studies (method not described)
[2] = target: T1, recombinant human KAAG1 (Kidney …); assay: SPR (ProteOn XPR36), antibody captured on anti-human IgG Fc, KAAG1 as analyte
Protocol: (§1) Immediately after the activation, a 13 μg/mL solution of anti-human IgG Fc fragment specific in 10 mM NaOAc pH 4.5 was injected in the analyte direction at a flow rate of 25 μL/min until approximately 8000 resonance units (RUs) were immobilized. Remaining active groups were quenched by a 300 s injection of 1M ethanolamine at 30 μL/min in the analyte direction, and this also ensures mock-activated interspots are created for blank referencing. The screening of the 3A4 variants for binding to KAAG1 occurred in two steps: an indirect capture of 3A4 variants from cell supernatant onto the anti-human IgG Fc fragment specific surface in the ligand direction(vertical) followed by a KAAG1 injection in the analyte direction. Firstly, one buffer injection for 30 s at 100 uL/min in the ligand direction was used to stabilize the baseline. […] Four to five 3A4 variants along with wild-type 3A4 were simultaneously injected in individual ligand channels for 240 s at flow 25 μL/min. […] The first ligand channel was left empty to use as a blank control if required. This 3A4 capture step was immediately followed by two buffer injections in the analyte direction to stabilize the baseline, and then the gel filtration purified KAAG1 was injected. For a typical screen, five KAAG1 concentrations (8, 2.66, 0.89, 0.29, and 0.098 nM) and buffer control were simultaneously injected in individual analyte channels at 50 μL/min for 120 s with a 600s dissociation phase, resulting in a set of binding sensorgrams with a buffer reference for each of the captured 3A4 variants. The anti-human IgG Fc fragment specific—3A4 complexes were regenerated by a 18 s pulse of 0.85% phosphoric acid for 18 s at 100 μL/min to prepare the anti-human IgG Fc fragment specific surface for the next injection cycle. Sensorgrams were aligned and double-referenced using the buffer blank injection and interspots, and the resulting sensorgrams were analyzed using ProteOn Manager software v3.0.

[3] = target: T1, recombinant human KAAG1 (Kidney …); assay: SPR (BioRad ProteOn XPR36): antibody captured on an anti-human IgG Fc surface, KAAG1 injected as analyte, 1:1 Langmuir fit
Protocol: as §1

[4] = target: T1, recombinant human KAAG1 (Kidney …); assay: SPR (BioRad ProteOn XPR36); fold difference of KD relative to LcHc
Protocol: as §1

[5] = target: T2, KAAG1 on the surface of cancer cells; assay: flow cytometry, MDA-231 cells

| Binder | binding result [1] | Kd [2] | fold difference in binding affinity between the worse variant (H1 L1) and the best variant (H4L2) [2] | Kd [3] | koff [3] | kon [3] | Fold diff. [4] | fold weaker affinity than the murine (LcHc) [2] | binding result [5] |
| --- | --- | --- | --- | --- | --- | --- | --- | --- | --- |
| 3G10 anti-KAAG1 antibody (antibody, V domains shown) VH: EIQLQQSGPELVKPGASVKISCKASGYTFTDNYMNWVKQSHGKSLEWIGDINPYYGTTTYNQKFKGKATLTVDKSSRTAYMELRGLTSEDSAVYYCARDDWFDYWGQGTLVTVSA VL: DVLMTQTPRSLSVSLGDQASISCRSSQSLLHSNGNTYLEWYLQKPGQPPKVLIYKVSNRFSGVPDRFSGSGSGTDFTLKISGVEAEDLGVYYCFQGSHVPLTFGAGTKLELK | binds | – | – | – | – | – | – | – | – |
| humanized 3A4 antibody Lh1Hh1 (antibody, human IgG1, kappa, V domains shown, Human IgG1/kappa; 100% humanized frameworks; also called H1 L1; H1L1) VH: QVQLVQSGAEVKKPGASVKVSCKASGYTFTDDYMSWVRQAPGQGLEWMGDINPYNGDTNYNQKFKGRVTITADTSTSTAYMELSSLRSEDTAVYYCARDPGAMDYWGQGTLVTVSS VL: DIVMTQTPLSLPVTPGEPASISCRSSQSLLHSNGNTYLEWYLQKPGQSPQLLIYTVSNRFSGVPDRFSGSGSGTDFTLKISRVEAEDVGVYYCFQGSHVPLTFGQGTKLEIKR | – | 0.47 nM | 4 fold | 0.474 nM | 0.00328 s⁻¹ | 6.93e+06 M⁻¹ s⁻¹ | 29.6 | – | – |
| humanized 3A4 antibody Lh2Hh3 (antibody, human IgG1, kappa, V domains shown, Human IgG1/kappa) VH: QIQLVQSGAEVKKPGASVKVSCKASGYTFTDDYMSWVRQAPGQGLEWIGDINPYNGDTNYNQKFKGRATLTVDKSTSTAYMELSSLRSEDTAVYYCARDPGAMDYWGQGTLVTVSS VL: DVVMTQTPLSLPVTPGEPASISCRSSQSLLHSNGNTYLEWYLQKPGQSPKLLIYTVSNRFSGVPDRFSGSGSGTDFTLKISRVEAEDVGVYYCFQGSHVPLTFGQGTKLEIKR | – | – | – | 0.228 nM | 0.00102 s⁻¹ | 4.46e+06 M⁻¹ s⁻¹ | 14.3 | – | – |
| humanized 3A4 antibody Lh2Hh2 (antibody, human IgG1, kappa, V domains shown, Human IgG1/kappa) VH: QIQLVQSGAEVKKPGASVKVSCKASGYTFTDDYMSWVRQAPGQGLEWMGDINPYNGDTNYNQKFKGRVTITADKSTSTAYMELSSLRSEDTAVYYCARDPGAMDYWGQGTLVTVSS VL: DVVMTQTPLSLPVTPGEPASISCRSSQSLLHSNGNTYLEWYLQKPGQSPKLLIYTVSNRFSGVPDRFSGSGSGTDFTLKISRVEAEDVGVYYCFQGSHVPLTFGQGTKLEIKR | – | – | – | 0.245 nM | 0.00181 s⁻¹ | 7.4e+06 M⁻¹ s⁻¹ | 15.3 | – | – |
| humanized 3A4 antibody Lh2Hh1 (antibody, human IgG1, kappa, V domains shown, Human IgG1/kappa) VH: QVQLVQSGAEVKKPGASVKVSCKASGYTFTDDYMSWVRQAPGQGLEWMGDINPYNGDTNYNQKFKGRVTITADTSTSTAYMELSSLRSEDTAVYYCARDPGAMDYWGQGTLVTVSS VL: DVVMTQTPLSLPVTPGEPASISCRSSQSLLHSNGNTYLEWYLQKPGQSPKLLIYTVSNRFSGVPDRFSGSGSGTDFTLKISRVEAEDVGVYYCFQGSHVPLTFGQGTKLEIKR | – | – | – | 0.341 nM | 0.00237 s⁻¹ | 6.97e+06 M⁻¹ s⁻¹ | 21.3 | – | – |
| humanized 3A4 antibody Lh1Hh3 (antibody, human IgG1, kappa, V domains shown, Human IgG1/kappa) VH: QIQLVQSGAEVKKPGASVKVSCKASGYTFTDDYMSWVRQAPGQGLEWIGDINPYNGDTNYNQKFKGRATLTVDKSTSTAYMELSSLRSEDTAVYYCARDPGAMDYWGQGTLVTVSS VL: DIVMTQTPLSLPVTPGEPASISCRSSQSLLHSNGNTYLEWYLQKPGQSPQLLIYTVSNRFSGVPDRFSGSGSGTDFTLKISRVEAEDVGVYYCFQGSHVPLTFGQGTKLEIKR | – | – | – | 0.149 nM | 0.00096 s⁻¹ | 6.46e+06 M⁻¹ s⁻¹ | 9.3 | – | – |
| humanized 3A4 antibody Lh1Hh4 (antibody, human IgG1, kappa, V domains shown, Human IgG1/kappa) VH: QIQLVQSGAEVKKPGASVKVSCKASGYTFTDDYMSWVKQAPGQGLEWIGDINPYNGDTNYNQKFKGKATLTVDKSTSTAYMELSSLRSEDTAVYYCARDPGAMDYWGQGTLVTVSS VL: DIVMTQTPLSLPVTPGEPASISCRSSQSLLHSNGNTYLEWYLQKPGQSPQLLIYTVSNRFSGVPDRFSGSGSGTDFTLKISRVEAEDVGVYYCFQGSHVPLTFGQGTKLEIKR | – | – | – | 0.149 nM | 0.000764 s⁻¹ | 5.14e+06 M⁻¹ s⁻¹ | 9.3 | – | – |
| humanized 3A4 antibody Lh2Hh4 (antibody, human IgG1, kappa, V domains shown, Human IgG1/kappa; 10 mouse framework residues retained; also called H4L2) VH: QIQLVQSGAEVKKPGASVKVSCKASGYTFTDDYMSWVKQAPGQGLEWIGDINPYNGDTNYNQKFKGKATLTVDKSTSTAYMELSSLRSEDTAVYYCARDPGAMDYWGQGTLVTVSS VL: DVVMTQTPLSLPVTPGEPASISCRSSQSLLHSNGNTYLEWYLQKPGQSPKLLIYTVSNRFSGVPDRFSGSGSGTDFTLKISRVEAEDVGVYYCFQGSHVPLTFGQGTKLEIKR | – | 0.1 nM | – | 0.103 nM | 0.00047 s⁻¹ | 4.57e+06 M⁻¹ s⁻¹ | 6.4 | ~6 fold | – |
| 3A4-ADC1 (chimeric 3A4 conjugated to a cytotoxic drug via a cleavable peptide linker) (antibody, human IgG1, kappa, V domains shown, cytotoxic drug conjugated via a highly stable peptide linker that is selectively cleaved by lysosomal enzymes; chain and residues of attachment not stated) VH: QIQLVQSGPEMVKPGASVKMSCKASGYTFTDDYMSWVKQSHGKSLEWIGDINPYNGDTNYNQKFKGKAILTVDKSSSTAYMQLNSLTSEDSAVYYCARDPGAMDYWGQGTSVTVSS VL: DVVMTQTPLSLAVSLGDQASISCRSSQSLLHSNGNTYLEWYLQKPGQSPKLLIHTVSNRFSGVPDRFSGSGSGTDFTLKISRVEAEDLGVYYCFQGSHVPLTFGAGTRLELKR | – | – | – | – | – | – | – | – | binds |
| 3A4-ADC2 (chimeric 3A4 conjugated to an anti-mitotic drug via a non-cleavable linker) (antibody, human IgG1, kappa, V domains shown, anti-mitotic drug conjugated via a non-cleavable linker; chain and residues of attachment not stated) VH: QIQLVQSGPEMVKPGASVKMSCKASGYTFTDDYMSWVKQSHGKSLEWIGDINPYNGDTNYNQKFKGKAILTVDKSSSTAYMQLNSLTSEDSAVYYCARDPGAMDYWGQGTSVTVSS VL: DVVMTQTPLSLAVSLGDQASISCRSSQSLLHSNGNTYLEWYLQKPGQSPKLLIHTVSNRFSGVPDRFSGSGSGTDFTLKISRVEAEDLGVYYCFQGSHVPLTFGAGTRLELKR | – | – | – | – | – | – | – | – | binds |
